Measurements from patent US20230407373A1 (priority 2020, published 2023).

B1: RBMS2 (protein, UniProt Q15434 1-407, looked up)
RNA-binding motif, …: MLLSVTSRPGISTFGYNRNNKKPYVSLAQQMAPPSPSNSTPNSSSGSNGNDQLSKTNLYIRGLQPGTTDQDLVKLCQPYGKIVSTKAILDKTTNKCKGYGFVDFDSPSAAQKAVTALKASGVQAQMAKQQEQDPTNLYISNLPLSMDEQELEGMLKPFGQVISTRILRDTSGTSRGVGFARMESTEKCEAIITHFNGKYIKTPPGVPAPSDPLLCKFADGGPKKRQNQGKFVQNGRAWPRNADMGVMALTYDPTTALQNGFYPAPYNITPNRMLAQSALSPYLSSPVSSYQRVTQTSPLQVPNPSWMHHHSYLMQPSGSVLTPGMDHPISLQPASMMGPLTQQLGHLSLSSTGTYMPTAAAMQGAYISQYTPVPSSSVSVEESSGQQNQVAVDAPSEHGVYSFQFNK
B2: HNRNPA3 (protein, UniProt P51991 1-378, looked up)
Heterogeneous nuclear …: MEVKPPPGRPQPDSGRRRRRRGEEGHDPKEPEQLRKLFIGGLSFETTDDSLREHFEKWGTLTDCVVMRDPQTKRSRGFGFVTYSCVEEVDAAMCARPHKVDGRVVEPKRAVSREDSVKPGAHLTVKKIFVGGIKEDTEEYNLRDYFEKYGKIETIEVMEDRQSGKKRGFAFVTFDDHDTVDKIVVQKYHTINGHNCEVKKALSKQEMQSAGSQRGRGGGSGNFMGRGGNFGGGGGNFGRGGNFGGRGGYGGGGGGSRGSYGGGDGGYNGFGGDGGNYGGGPGYSSRGGYGGGGPGYGNQGGGYGGGGGYDGYNEGGNFGGGNYGGGGNYNDFGNYSGQQQSNYGPMKGGSFGGRSSGSPYGGGYGSGGGSGGYGSRRF
B3: SPATS2 (protein, UniProt Q86XZ4 1-545, looked up)
Spermatogenesis-associated …: MSRKQNQKDSSGFIFDLQSNTVLAQGGAFENMKEKINAVRAIVPNKSNNEIILVLQHFDNCVDKTVQAFMEGSASEVLKEWTVTGKKKNKKKKNKPKPAAEPSNGIPDSSKSVSIQEEQSAPSSEKGGMNGYHVNGAINDTESVDSLSEGLETLSIDARELEDPESAMLDTLDRTGSMLQNGVSDFETKSLTMHSIHNSQQPRNAAKSLSRPTTETQFSNMGMEDVPLATSKKLSSNIEKSVKDLQRCTVSLARYRVVVKEEMDASIKKMKQAFAELESCLMDREVALLAEMDKVKAEAMEILLSRQKKAELLKKMTHVAVQMSEQQLVELRADIKHFVSERKYDEDLGRVARFTCDVETLKKSIDSFGQVSHPKNSYSTRSRCSSVTSVSLSSPSDASAASSSTCASPPSLTSANKKNFAPGETPAAIANSSGQPYQPLREVLPGNRRGGQGYRPQGQKSNDPMNQGRHDSMGRYRNSSWYSSGSRYQSAPSQAPGNTIERGQTHSAGTNGTGVSMEPSPPTPSFKKGLPQRKPRTSQTEAVNS
B4: ATXN2 (protein, UniProt Q99700 1-1313, looked up)
Ataxin-2: MRSAAAAPRSPAVATESRRFAAARWPGWRSLQRPARRSGRGGGGAAPGPYPSAAPPPPGPGPPPSRQSSPPSASDCFGSNGNGGGAFRPGSRRLLGLGGPPRPFVVLLLPLASPGAPPAAPTRASPLGARASPPRSGVSLARPAPGCPRPACEPVYGPLTMSLKPQQQQQQQQQQQQQQQQQQQQQQQPPPAAANVRKPGGSGLLASPAAAPSPSSSSVSSSSATAPSSVVAATSGGGRPGLGRGRNSNKGLPQSTISFDGIYANMRMVHILTSVVGSKCEVQVKNGGIYEGVFKTYSPKCDLVLDAAHEKSTESSSGPKREEIMESILFKCSDFVVVQFKDMDSSYAKRDAFTDSAISAKVNGEHKEKDLEPWDAGELTANEELEALENDVSNGWDPNDMFRYNEENYGVVSTYDSSLSSYTVPLERDNSEEFLKREARANQLAEEIESSAQYKARVALENDDRSEEEKYTAVQRNSSEREGHSINTRENKYIPPGQRNREVISWGSGRQNSPRMGQPGSGSMPSRSTSHTSDFNPNSGSDQRVVNGGVPWPSPCPSPSSRPPSRYQSGPNSLPPRAATPTRPPSRPPSRPSRPPSHPSAHGSPAPVSTMPKRMSSEGPPRMSPKAQRHPRNHRVSAGRGSISSGLEFVSHNPPSEAATPPVARTSPSGGTWSSVVSGVPRLSPKTHRPRSPRQNSIGNTPSGPVLASPQAGIIPTEAVAMPIPAASPTPASPASNRAVTPSSEAKDSRLQDQRQNSPAGNKENIKPNETSPSFSKAENKGISPVVSEHRKQIDDLKKFKNDFRLQPSSTSESMDQLLNKNREGEKSRDLIKDKIEPSAKDSFIENSSSNCTSGSSKPNSPSISPSILSNTEHKRGPEVTSQGVQTSSPACKQEKDDKEEKKDAAEQVRKSTLNPNAKEFNPRSFSQPKPSTTPTSPRPQAQPSPSMVGHQQPTPVYTQPVCFAPNMMYPVPVSPGVQPLYPIPMTPMPVNQAKTYRAVPNMPQQRQDQHHQSAMMHPASAAGPPIAATPPAYSTQYVAYSPQQFPNQPLVQHVPHYQSQHPHVYSPVIQGNARMMAPPTHAQPGLVSSSATQYGAHEQTHAMYACPKLPYNKETSPSFYFAISTGSLAQQYAHPNATLHPHTPHPQPSATPTGQQQSQHGGSHPAPSPVQHHQHQAAQALHLASPQQQSAIYHAGLAPTPPSMTPASNTQSPQNSFPAAQQTVFTIHPSHVQPAYTNPPHMAHVPQAHVQSGMVPSHPTAHAPMMLMTTQPPGGPQAALAQSALQPIPVSTTAHFPYMTHPSVQAHHQQQL
B5: ACLY (protein, UniProt P53396 1-1101, looked up)
ATP-citrate synthase: MSAKAISEQTGKELLYKFICTTSAIQNRFKYARVTPDTDWARLLQDHPWLLSQNLVVKPDQLIKRRGKLGLVGVNLTLDGVKSWLKPRLGQEATVGKATGFLKNFLIEPFVPHSQAEEFYVCIYATREGDYVLFHHEGGVDVGDVDAKAQKLLVGVDEKLNPEDIKKHLLVHAPEDKKEILASFISGLFNFYEDLYFTYLEINPLVVTKDGVYVLDLAAKVDATADYICKVKWGDIEFPPPFGREAYPEEAYIADLDAKSGASLKLTLLNPKGRIWTMVAGGGASVVYSDTICDLGGVNELANYGEYSGAPSEQQTYDYAKTILSLMTREKHPDGKILIIGGSIANFTNVAATFKGIVRAIRDYQGPLKEHEVTIFVRRGGPNYQEGLRVMGEVGKTTGIPIHVFGTETHMTAIVGMALGHRPIPNQPPTAAHTANFLLNASGSTSTPAPSRTASFSESRADEVAPAKKAKPAMPQDSVPSPRSLQGKSTTLFSRHTKAIVWGMQTRAVQGMLDFDYVCSRDEPSVAAMVYPFTGDHKQKFYWGHKEILIPVFKNMADAMRKHPEVDVLINFASLRSAYDSTMETMNYAQIRTIAIIAEGIPEALTRKLIKKADQKGVTIIGPATVGGIKPGCFKIGNTGGMLDNILASKLYRPGSVAYVSRSGGMSNELNNIISRTTDGVYEGVAIGGDRYPGSTFMDHVLRYQDTPGVKMIVVLGEIGGTEEYKICRGIKEGRLTKPIVCWCIGTCATMFSSEVQFGHAGACANQASETAVAKNQALKEAGVFVPRSFDELGEIIQSVYEDLVANGVIVPAQEVPPPTVPMDYSWARELGLIRKPASFMTSICDERGQELIYAGMPITEVFKEEMGIGGVLGLLWFQKRLPKYSCQFIEMCLMVTADHGPAVSGAHNTIICARAGKDLVSSLTSGLLTIGDRFGGALDAAAKMFSKAFDSGIIPMEFVNKMKKEGKLIMGIGHRVKSINNPDMRVQILKDYVRQHFPATPLLDYALEVEKITTSKKPNLILNVDGLIGVAFVDMLRNCGSFTREEADEYIDIGALNGIFVLGRSMGFIGHYLDQKRLKQGLYRHPWDDISYVLPEHMSM
B6: ZC3H7A: host protein, UniProt Q8IWRD (protein, UniProt Q8IWR0 1-971, looked up)
Zinc finger CCCH …: MSNVSEERRKRQQNIKEGLQFIQSPLSYPGTQEQYAVYLRALVRNLFNEGNDVYREHDWNNSISQYTEALNIADYAKSEEILIPKEIIEKLYINRIACYSNMGFHDKVLEDCNIVLSLNASNCKALYRKSKALSDLGRYKKAYDAVAKCSLAVPQDEHVIKLTQELAQKLGFKIRKAYVRAELSLKSVPGDGATKALNHSVEDIEPDLLTPRQEAVPVVSLPAPSFSHEVGSELASVPVMPLTSILPLQVEESALPSAVLANGGKMPFTMPEAFLDDGDMVLGDELDDLLDSAPETNETVMPSALVRGPLQTASVSPSMPFSASLLGTLPIGARYAPPPSFSEFYPPLTSSLEDFCSSLNSFSMSESKRDLSTSTSREGTPLNNSNSSLLLMNGPGSLFASENFLGISSQPRNDFGNFFGSAVTKPSSSVTPRHPLEGTHELRQACQICFVKSGPKLMDFTYHANIDHKCKKDILIGRIKNVEDKSWKKIRPRPTKTNYEGPYYICKDVAAEEECRYSGHCTFAYCQEEIDVWTLERKGAFSREAFFGGNGKINLTVFKLLQEHLGEFIFLCEKCFDHKPRMISKRNKDNSTACSHPVTKHEFEDNKCLVHILRETTVKYSKIRSFHGQCQLDLCRHEVRYGCLREDECFYAHSLVELKVWIMQNETGISHDAIAQESKRYWQNLEANVPGAQVLGNQIMPGFLNMKIKFVCAQCLRNGQVIEPDKNRKYCSAKARHSWTKDRRAMRVMSIERKKWMNIRPLPTKKQMPLQFDLCNHIASGKKCQYVGNCSFAHSPEEREVWTYMKENGIQDMEQFYELWLKSQKNEKSEDIASQSNKENGKQIHMPTDYAEVTVDFHCWMCGKNCNSEKQWQGHISSEKHKEKVFHTEDDQYCWQHRFPTGYFSICDRYMNGTCPEGNSCKFAHGNAELHEWEERRDALKMKLNKARKDHLIGPNDNDFGKYSFLFKDLN

How the values were obtained:
[1] = tested on: SARS-CoV-2 gRNA and sgRNAs; assay type: binding; details: for target (unweighted spectral count in RNP capture): Probe II capture, LC-MS/MS LFQ; for background (unweighted spectral count in control): no-probe control pull-down, used as background for Probe II; for target (unweighted spectral count of the protein in the RNP capture experiment): LC-MS/MS label-free quantification, probe pool not given; for back-ground (unweighted spectral count of the protein in the control experiment): protein background of the control (e.g. no-probe) experiment
[2] = tested on: HCoV-OC43 gRNA and sgRNA; assay type: binding; details: for target (unweighted spectral count, OC43 Probe II capture): type n_36_v, FDR<10%; for target (unweighted spectral count, OC43 Probe II capture) / target (unweighted spectral count): tested against no-probe control; for target (unweighted spectral count): OC43 Probe II, 24 hpi (type n_24_v), infected cells; for target (unweighted spectral count, OC43 Probe II) / background (unweighted spectral count, no-probe control): type n_48_v, 48 hpi; for target (unweighted spectral count, OC43 Probe II): OC43 Probe II capture on infected cells; for background (unweighted spectral count, no-probe control): no-probe control on infected cells

Row | Molecule | target (unweighted spectral count in RNP capture) [1] | background (unweighted spectral count in control) [1] | target (unweighted spectral count, OC43 Probe II capture) ([2]; 36 hpi) | target (unweighted spectral count) [2] | target (unweighted spectral count of the protein in the RNP capture experiment) [1] | back-ground (unweighted spectral count of the protein in the control experiment) [1] | target (unweighted spectral count, OC43 Probe II) [2] | background (unweighted spectral count, no-probe control) [2] | target (spectral count) ([2]; type s_36_m, HCoV-OC43-infected HCT-8 cells, 36 hpi, Probe II) | background (spectral count) ([2]; type s_36_m, uninfected-probe control, 36 hpi, Probe II)
1 | B1 | 14 | 1 | 4 |  |  |  |  |  |  | 
2 | B2 | 51 | 1 | 25 | 22 |  |  |  |  |  | 
3 | B3 |  |  |  |  | 5 | 1 |  |  |  | 
4 | B4 | 22 | 1 | 4 |  |  |  | 6 | 1 |  | 
5 | B5 |  |  |  |  | 6 | 1 |  |  |  | 
6 | B6 | 14 | 1 | 9 | 8 |  |  | 9 | 1 | 9 | 1
